The target in the assay is human IgA1 (human) (UniProt P01876). The assay can be described thus: cell-based or functional assay.
Chain of UniProt P01876 (P01876 other isoform, or with tags, fused parts or gaps): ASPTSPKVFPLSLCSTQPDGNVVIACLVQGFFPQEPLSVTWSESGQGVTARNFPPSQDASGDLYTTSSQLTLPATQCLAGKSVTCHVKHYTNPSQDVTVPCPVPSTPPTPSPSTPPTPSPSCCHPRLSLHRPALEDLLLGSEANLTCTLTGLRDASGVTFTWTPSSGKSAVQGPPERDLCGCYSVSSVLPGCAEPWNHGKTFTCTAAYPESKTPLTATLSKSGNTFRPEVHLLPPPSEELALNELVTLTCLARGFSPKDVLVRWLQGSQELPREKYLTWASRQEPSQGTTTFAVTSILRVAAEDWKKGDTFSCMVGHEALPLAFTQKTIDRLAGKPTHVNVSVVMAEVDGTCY

Take “C-terminal His-tagged H. influenzae IgA1 protease (proteolytic protease domain, lacking the α protein and β-core domains) (from UniProt P44969 26-1014) (enzyme)”: the human IgA1 cleavage activity of purified refolded IgA1 protease (Experion automated electrophoresis) (ng IgA1/uL/min/ng protease) was found to be 50.

These data come from patent US20100261252A1.
